Results on 26 sequences are retold here after the Immune Epitope Database (IEDB).

Targets include HLA-A*02:06; HLA-A*02:03; HLA-A*03:01; HLA-A*33:01; HLA-A*68:01; HLA-A*11:01; HLA-A*31:01.
Common to all, as to test: IEDB peptide-MHC binding, purified MHC/competitive/radioactivity; filed as Kd, often an IC50 or EC50 that approximates it; ≥ and ≤ were set here for values at or beyond the usual limits of such assays
The target in another test is HLA-A*02:02. The note with it: source organism: Vaccinia virus WR.
The mark [1] stands for this setting: source organism: Vaccinia virus WR.
Setting [2] is: source organism: SARS coronavirus Tor2.
[3] abbreviates: source organism: Mammarenavirus brazilense.
Where [4] appears, read: source organism: Human immunodeficiency virus type 1 (CLONE 12).
Where [5] appears, read: source organism: Lassa virus GA391.
[6] abbreviates: source organism: Lassa virus Josiah.
The mark [7] stands for this setting: source organism: Lymphocytic choriomeningitis virus (strain Armstrong).

DLKHATDYIA: the Kd (usually the free concentration of one partner at which half of the binding sites on the other are occupied at equilibrium, for simple one-to-one binding) was determined as 8760 nM with HLA-A*02:02, 1050 nM with HLA-A*02:06 (setting [1]) and 2960 nM in the test with HLA-A*02:03 (setting [1]).
The like results for YIWIKNLET were, in that order, 12600 nM, 347 nM and 1180 nM.
The like results for TTFITVLTSV were, in that order, 1120 nM, 166 nM and 16.1 nM.
The like results for PLTLLIKTL were, in that order, 5270 nM, 8100 nM and 6140 nM.
Regarding YVASYLLAA, the dissociation constant (Kd) with HLA-A*02:03 (source organism: Homo sapiens) turned out to be 0.978 nM.
On to ALYEQVVMDY, for which the Kd is 348 nM in the test with HLA-A*03:01 (setting [2]); no less than 27100 nM with HLA-A*33:01 (setting [2]); no less than 32500 nM with HLA-A*68:01 (setting [2]); 3430 nM in the test with HLA-A*11:01 (setting [2]); no less than 44600 nM with HLA-A*31:01 (setting [2]).
Take DAVRAFLLR: the Kd with HLA-A*03:01 (setting [1]) was no less than 34400 nM; with HLA-A*33:01 (setting [1]), 23.4 nM; with HLA-A*68:01 (setting [1]) it was 0.831 nM; in the test with HLA-A*11:01 (setting [1]), 13700 nM; with HLA-A*31:01 (setting [1]) it was 484 nM.
Take VVMDYLDNLK: the dissociation constant Kd was 6520 nM in the test with HLA-A*03:01 (setting [2]); no less than 46900 nM with HLA-A*33:01 (setting [2]); 6730 nM with HLA-A*68:01 (setting [2]); 1960 nM with HLA-A*11:01 (setting [2]); no less than 36600 nM with HLA-A*31:01 (setting [2]).
In the case of FIMAYVNQAH, the Kd is no less than 20300 nM with HLA-A*03:01 (setting [3]); 14500 nM with HLA-A*33:01 (setting [3]); 3450 nM with HLA-A*68:01 (setting [3]); no less than 42700 nM with HLA-A*11:01 (setting [3]); no less than 30200 nM in the test with HLA-A*31:01 (setting [3]).
For RILQQLLFI, the Kd with HLA-A*02:06 (setting [4]) was 21.6 nM; in the test with HLA-A*02:03 (setting [4]) it was 543 nM.
Consider NYSRYWYLNH, for which the Kd with HLA-A*03:01 (setting [5]) is 16200 nM; in the test with HLA-A*33:01 (setting [5]) it was 1360 nM; with HLA-A*68:01 (setting [5]), no less than 70100 nM; in the test with HLA-A*11:01 (setting [5]), no less than 30800 nM; with HLA-A*31:01 (setting [5]) it was 7960 nM.
For SFYLISIFLH, the Kd in the test with HLA-A*03:01 (setting [6]) was determined as 1020 nM; with HLA-A*33:01 (setting [6]) it was 281 nM; with HLA-A*68:01 (setting [6]), 3240 nM; in the test with HLA-A*11:01 (setting [6]) it was 17100 nM; with HLA-A*31:01 (setting [6]), 160 nM.
For the sequence AQPGLLSYV, the Kd with HLA-A*02:03 (source organism: Mammarenavirus guanaritoense) came to 5.53 nM.
Turning to VTFRERYSY, the Kd with HLA-A*03:01 (setting [1]) is 56.5 nM; with HLA-A*33:01 (setting [1]), no less than 5000 nM; in the test with HLA-A*68:01 (setting [1]) it was 106 nM; with HLA-A*11:01 (setting [1]), 4.5 nM; in the test with HLA-A*31:01 (setting [1]) it was 81.9 nM.
For ASILSLETVK, the dissociation constant Kd with HLA-A*03:01 (setting [1]) is 4700 nM; with HLA-A*33:01 (setting [1]), no less than 70000 nM; in the test with HLA-A*68:01 (setting [1]) it was 1770 nM; with HLA-A*11:01 (setting [1]) it was 25.4 nM; with HLA-A*31:01 (setting [1]), 12800 nM.
For the sequence KLSMGLIAIA, in the test with HLA-A*02:03 (source organism: Dengue virus 4 Philippines/H241/1956), the Kd worked out at 22.9 nM.
Regarding RSNAILHNIY, the Kd with HLA-A*03:01 (setting [1]) was 3720 nM; with HLA-A*33:01 (setting [1]), no less than 70000 nM; with HLA-A*68:01 (setting [1]), 1030 nM; in the test with HLA-A*11:01 (setting [1]) it was 1360 nM; with HLA-A*31:01 (setting [1]) it was 619 nM.
The like results for FMLIFNVKSK were, in that order, 211 nM, 19400 nM, 37.7 nM, 3430 nM and 6050 nM.
The matching figures for KFAEESYTYY: 4860 nM, no less than 42100 nM, 1130 nM, 10200 nM and no less than 21700 nM.
On to IYKGVYQFK, for which the Kd was 198 nM with HLA-A*03:01 (setting [7]); 13.5 nM with HLA-A*33:01 (setting [7]); 8810 nM in the test with HLA-A*68:01 (setting [7]); 718 nM with HLA-A*11:01 (setting [7]); 3.21 nM with HLA-A*31:01 (setting [7]).
For the sequence IILFILFFAY, the Kd with HLA-A*03:01 (setting [1]) worked out at 720 nM; with HLA-A*33:01 (setting [1]), 2570 nM; with HLA-A*68:01 (setting [1]), 325 nM; in the test with HLA-A*11:01 (setting [1]), 11100 nM; with HLA-A*31:01 (setting [1]) it was 1330 nM.
The matching figures for NTPVSMTYLY: no less than 45500 nM, no less than 70000 nM, 415 nM, 1400 nM and no less than 70000 nM.
Regarding RLQMAGVEVR, the Kd with HLA-A*03:01 (setting [1]) stood at 1480 nM; in the test with HLA-A*33:01 (setting [1]), 4950 nM; with HLA-A*68:01 (setting [1]) it was 910 nM; with HLA-A*11:01 (setting [1]), 14700 nM; with HLA-A*31:01 (setting [1]), 118 nM.
The like results for PSILPSLIK were, in that order, 1850 nM, no less than 77700 nM, no less than 40900 nM, 383 nM and no less than 36900 nM.
For the sequence DLTAALRDV, in the test with HLA-A*02:06 (source organism: Homo sapiens), the Kd is no less than 28100 nM.
On to SSDSENNPEY, for which the Kd is no less than 70100 nM with HLA-A*03:01 (setting [1]); no less than 70000 nM with HLA-A*33:01 (setting [1]); no less than 70200 nM with HLA-A*68:01 (setting [1]); 4460 nM in the test with HLA-A*11:01 (setting [1]); no less than 70000 nM in the test with HLA-A*31:01 (setting [1]).
